Assay results taken from patent US20230322882A1 (NANJING NORMAL UNIVERSITY, published 2023).
Read-outs that look alike come from different tables or passages of the source.

T1: CD25, CD122 and CD132 receptor molecules on HEK-Blue IL-2 cells (UniProt P01589 22-272; P14784 27-551; P31785 23-369, limits assumed)
T1 sequence (looked up) 1: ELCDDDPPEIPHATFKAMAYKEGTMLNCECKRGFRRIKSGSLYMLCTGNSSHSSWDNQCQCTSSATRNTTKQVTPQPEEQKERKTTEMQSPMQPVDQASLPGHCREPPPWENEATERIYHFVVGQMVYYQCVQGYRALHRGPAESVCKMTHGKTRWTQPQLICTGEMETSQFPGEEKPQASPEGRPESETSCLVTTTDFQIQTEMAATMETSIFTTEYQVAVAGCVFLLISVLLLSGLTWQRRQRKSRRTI
T1 sequence (looked up) 2: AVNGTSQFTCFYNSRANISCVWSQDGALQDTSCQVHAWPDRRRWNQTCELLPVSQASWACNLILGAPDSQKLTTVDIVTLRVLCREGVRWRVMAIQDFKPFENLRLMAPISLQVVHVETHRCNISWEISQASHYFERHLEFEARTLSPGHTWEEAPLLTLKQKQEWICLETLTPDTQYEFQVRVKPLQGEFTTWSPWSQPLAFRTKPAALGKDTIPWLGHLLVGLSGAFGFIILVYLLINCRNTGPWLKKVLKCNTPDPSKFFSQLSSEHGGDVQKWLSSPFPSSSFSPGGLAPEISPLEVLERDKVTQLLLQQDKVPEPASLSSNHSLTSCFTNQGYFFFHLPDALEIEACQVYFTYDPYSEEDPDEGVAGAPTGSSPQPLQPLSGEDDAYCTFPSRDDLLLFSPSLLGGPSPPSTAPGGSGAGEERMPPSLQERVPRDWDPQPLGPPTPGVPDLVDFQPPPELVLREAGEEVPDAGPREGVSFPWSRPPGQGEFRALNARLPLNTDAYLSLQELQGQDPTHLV
T1 sequence (looked up) 3: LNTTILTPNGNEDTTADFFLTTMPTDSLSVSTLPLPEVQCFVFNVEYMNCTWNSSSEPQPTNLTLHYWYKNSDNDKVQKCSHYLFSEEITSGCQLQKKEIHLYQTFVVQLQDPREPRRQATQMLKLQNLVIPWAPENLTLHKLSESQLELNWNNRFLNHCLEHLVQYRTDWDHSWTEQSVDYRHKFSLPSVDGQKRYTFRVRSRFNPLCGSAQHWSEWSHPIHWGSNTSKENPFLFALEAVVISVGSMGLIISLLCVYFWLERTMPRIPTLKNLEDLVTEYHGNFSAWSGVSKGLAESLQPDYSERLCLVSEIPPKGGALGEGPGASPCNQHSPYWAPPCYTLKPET


Experiments:
[1] = biological target: T1, CD25, CD122 and CD132 receptor …; experiment: cell-based or functional assay
[2] = biological target: T1, CD25, CD122 and CD132 receptor …; experiment: cell-based or functional assay; remark: listed apart in the source

Row | Binder | EC50 (pM), STAT5-regulated SEAP reporter in HEK-Blue IL-2 cells [1] [pM] | EC50 (pM), STAT5-regulated SEAP reporter in HEK-Blue IL-2 cells [2] [pM]
1 | Polypeptide dimer 1 (SEQ ID NO: 31 + SEQ ID NO: 32) (Fc fusion) chain 1: HHHHHHTCPPCPAPEAAGGPSVFLFPPKPKDTLMISRTPEVTCVVVDVSHEDPEVKFNWYVDGVEVHNAKTKPREEQYNSTYRVVSVLTVLHQDWLNGKEYKCKVSNKALGAPIEKTISKAKGQPREPQVYTLPPCREEMTKNQVSLWCLVKGFYPSDIAVEWESNGQPENNYKTTPPVLDSDGSFFLYSKLTVDKSRWQQGNVFSCSVMHEALHNHYTQKSLSLSPGGGGGSGGGGSNFHLRPRDLISNINVIVLELKGSETTFMCEYADETATIVEFLNRWITFSQSIISTLTGSGPASSSTKKTQLQLEHLLLDLQMILNGINNYKNPKLTRMLTFKFYMPKKATELKHLQCLEEELKPLEEVLNLAQSK chain 2: HTCPPCPAPEAAGGPSVFLFPPKPKDTLMISRTPEVTCVVVDVSHEDPEVKFNWYVDGVEVHNAKTKPREEQYNSTYRVVSVLTVLHQDWLNGKEYKCKVSNKALGAPIEKTISKAKGQPREPQVCTLPPSREEMTKNQVSLSCAVKGFYPSDIAVEWESNGQPENNYKTTPPVLDSDGSFFLVSKLTVDKSRWQQGNVFSCSVMHEALHNHYTQKSLSLSPGGGGGSGGGGSELCDDDPPEIPHATFKAMAYKEGTMLNCECKRGFRRIKSGSLYMLCTGNSSHSSWDNQCQCTSSATRNTTKQVTPQPEEQKERKTTEMQSPMQPVDQASLPGHCREPPPWENEATERIYHFVVGQMVYYQCVQGYRALHRGPAESVCKMTHGKTRWTQPQLICTGDYKDDDDK | 10.8 | 
2 | Polypeptide dimer 2 (SEQ ID NO: 33 + SEQ ID NO: 34) (Fc fusion) chain 1: HHHHHHTCPPCPAPEAAGGPSVFLFPPKPKDTLMISRTPEVTCVVVDVSHEDPEVKFNWYVDGVEVHNAKTKPREEQYNSTYRVVSVLTVLHQDWLNGKEYKCKVSNKALGAPIEKTISKAKGQPREPQVCTLPPSREEMTKNQVSLSCAVKGFYPSDIAVEWESNGQPENNYKTTPPVLDSDGSFFLVSKLTVDKSRWQQGNVFSCSVMHEALHNHYTQKSLSLSPGGGGGSGGGGSNFHLRPRDLISNINVIVLELKGSETTFMCEYADETATIVEFLNRWITFSQSIISTLTGSGPASSSTKKTQLQLEHLLLDLQMILNGINNYKNPKLTRMLTFKFYMPKKATELKHLQCLEEELKPLEEVLNLAQSK chain 2: HTCPPCPAPEAAGGPSVFLFPPKPKDTLMISRTPEVTCVVVDVSHEDPEVKFNWYVDGVEVHNAKTKPREEQYNSTYRVVSVLTVLHQDWLNGKEYKCKVSNKALGAPIEKTISKAKGQPREPQVYTLPPCREEMTKNQVSLWCLVKGFYPSDIAVEWESNGQPENNYKTTPPVLDSDGSFFLYSKLTVDKSRWQQGNVFSCSVMHEALHNHYTQKSLSLSPGGGGGSGGGGSELCDDDPPEIPHATFKAMAYKEGTMLNCECKRGFRRIKSGSLYMLCTGNSSHSSWDNQCQCTSSATRNTTKQVTPQPEEQKERKTTEMQSPMQPVDQASLPGHCREPPPWENEATERIYHFVVGQMVYYQCVQGYRALHRGPAESVCKMTHGKTRWTQPQLICTGDYKDDDDK |  | 10.2
